T1: human IL-36R on cells (HT29 reporter cells, HT29, A431, human PBMC) (human, UniProt Q9HB29 20-575)
T1 sequence (looked up): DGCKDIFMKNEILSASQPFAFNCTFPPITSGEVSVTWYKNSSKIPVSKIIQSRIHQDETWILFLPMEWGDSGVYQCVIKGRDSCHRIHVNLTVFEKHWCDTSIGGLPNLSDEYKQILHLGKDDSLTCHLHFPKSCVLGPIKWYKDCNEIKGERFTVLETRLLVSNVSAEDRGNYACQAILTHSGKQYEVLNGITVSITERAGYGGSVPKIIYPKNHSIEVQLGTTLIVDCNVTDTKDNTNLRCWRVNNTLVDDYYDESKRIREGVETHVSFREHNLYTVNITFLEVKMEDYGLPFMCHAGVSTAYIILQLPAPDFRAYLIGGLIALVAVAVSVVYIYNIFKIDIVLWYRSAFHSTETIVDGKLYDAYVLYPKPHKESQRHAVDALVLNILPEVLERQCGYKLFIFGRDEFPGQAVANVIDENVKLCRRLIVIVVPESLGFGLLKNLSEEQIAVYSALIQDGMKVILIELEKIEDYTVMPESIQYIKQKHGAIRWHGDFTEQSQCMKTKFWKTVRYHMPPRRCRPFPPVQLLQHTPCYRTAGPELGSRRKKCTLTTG

T2: 人白介素-36受体 (human IL-36R), soluble antigen in the Biacore assay (human)
T2 chain: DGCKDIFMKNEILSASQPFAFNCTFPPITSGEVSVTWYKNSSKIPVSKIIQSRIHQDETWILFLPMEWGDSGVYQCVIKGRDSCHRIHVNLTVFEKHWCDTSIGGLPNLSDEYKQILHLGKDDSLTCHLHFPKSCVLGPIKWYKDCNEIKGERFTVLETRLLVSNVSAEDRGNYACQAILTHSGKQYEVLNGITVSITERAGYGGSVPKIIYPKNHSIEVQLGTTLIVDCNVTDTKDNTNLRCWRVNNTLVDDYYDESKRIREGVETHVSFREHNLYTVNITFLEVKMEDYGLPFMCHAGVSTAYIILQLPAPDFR


How the values were obtained:
[1] = biological target: T1, human IL-36R on cells (HT29 reporter …); assay: cell-based or functional assay
[2] = biological target: T2, 人白介素-36受体 (human IL-36R), soluble …; assay: SPR, Biacore T200, antibody captured on Protein A chip, antigen in flow, 25°C, 1:1 model, mean of three runs

Row | Binder | 抑制人IL-36(α、β、γ)诱导A431细胞释放CXCL-1的IC50 [1] | 抑制人IL-36(α、β、γ)诱导A431细胞释放IL-8的IC50 [1] | 抑制人IL-36(α、β、γ)诱导HT29细胞释放CXCL-1的IC50 [1] | 抑制人IL-36(α、β、γ)诱导HT29细胞释放IL-8的IC50 [1] | 抑制人IL-36(α、β、γ)诱导的HT29报告基因细胞STAT3磷酸化活性的IC50 [1] | 抑制人IL-36β诱导的人PBMC细胞释放IL-8活性的IC50 [1] | Kd [2] | koff [2] | kon [2] | 抑制人IL-36(α、β、γ)诱导的HT29报告基因细胞STAT3磷酸化的IC50 [1] | 抑制人IL-36β诱导的人PBMC释放IL-8活性的IC50 [1]
1 | QX009N(HZD25-54) (antibody, V domains shown) VH: EVQLVESGGGLVQPGGSLRLSCAASGIDLSNYAMGWVRQAPGKGLEWVGYISGGGSAYYASWAKGRFTISRDNSKNTLYLQMNSLRAEDTAVYYCARWAIKSYFFGMDLWGQGTLVTVSS VL: DIQMTQSPSSVSASVGDRVTITCQASEYISSYLAWYQQKPGKAPKLLIYQASTLASGVPSRFSGSGSGTDFTLTISSLQPEDFATYYCQTNNAIHTYGGAFGGGTKVEIK | 4.12 ng/mL | 2.89 ng/mL | 2.21 ng/mL | 1.53 ng/mL | 2.16 ng/mL | 4.69 ng/mL | 0.313 nM | 3.58e-05 s⁻¹ | 114000 M⁻¹ s⁻¹ | – | –
2 | Spesolimab (self-made from the B6 sequence of US9023995B2) (antibody, V domains shown) VH: QVQLVQSGAEVKKPGASVKVSCKASGYSFTSSWIHWVKQAPGQGLEWMGEINPGNVRTNYNENFRNKVTMTVDTSISTAYMELSRLRSDDTAVYYCTVVFYGEPYFPYWGQGTLVTVSS VL: QIVLTQSPGTLSLSPGERATMTCTASSSVSSSYFHWYQQKPGQAPRLWIYRTSRLASGVPDRFSGSGSGTDFTLTISRLEPEDAATYYCHQFHRSPLTFGAGTKLEIK | 22.5 ng/mL | 16 ng/mL | 12.3 ng/mL | 11.5 ng/mL | – | – | 0.862 nM | 3.11e-05 s⁻¹ | 36000 M⁻¹ s⁻¹ | 15.7 ng/mL | 26.6 ng/mL
